Measurements as given in the supplement of paper PMC10567573.

B1: SAT2 (parent)
chain: IIKKVAEVALDKGCSQFRLAVLDW
B2: CPN1 (parent)
chain: RGVRRTASTPTPDDKLFQKLAKVY
B3: GFOD1 (parent)
chain: SDDFCTFQMVLEGGVCCTVTLNFN

Variants of: B1
Assay: protein stability index of a GFP-peptide fusion (GPS, HEK-293T) (PSI 1-6); higher = more stable
Conditions: c terminus: a fixed tail appended
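Also: lentivirally expressed fusions sorted by FACS into six bins by GFP to DsRed ratio, PSI derived from sequencing read proportions per bin multiplied by bin number.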

Protein stability index: each site, then its substitutions
I2: N 2.16 | W 1.81 | P 1.03 | D 1.74 | G 1.48 | H 1.33 | F 3.61 | S 1.98 | K 2.16 | M 1.32
E7: L 2.75 | Y 2.64 | M 1.78 | N 2.35 | P 2.75 | T 2.79 | I 1.52
S15: Q 1.56 | L 3.77 | Y 3.27 | W 1.79 | D 2.74
D11: Q 2.15 | Y 2.01 | L 1.19 | P 4.36 | F 3.5
Q16: W 1.51 | F 4.68 | E 3.74
A9: N 2.8 | I 2.87 | F 2.31 | M 2.39
V21: N 1.51 | L 4.52 | H 2.52 | T 1.78 | G 3.79 | Q 1.04 | W 3.21 | K 1.87
G13: C 2.45 | D 2.79 | I 2.37
D23: F 1.82 | M 2.98 | I 3.25 | H 3.77 | V 2.16 | Y 2.22 | C 3.04
K3: R 2.37 | P 1.86
R18: P 2.17 | L 2.39 | Y 3.6 | S 3.36 | M 1.8
K12: C 3.59 | G 3.51 | M 2.73 | W 4.21
K4: Y 2.95 | W 3.9 | Q 2.45 | E 3.05 | G 1.54 | P 1.31
W24: D 1.37 | P 1.65 | R 1.28 | N 2.22 | T 2.24 | E 2.23 | S 3.1 | M 2.37 | H 1.04
L22: T 3.66 | W 4.19 | D 1.23 | P 2.5 | K 2 | F 1.86
A20: P 2.01 | T 2.13
L10: N 1.17 | H 1.99 | T 3.02 | M 4.14 | D 1.75 | C 3.52 | S 1.05
V8: E 1.2 | P 1.7 | N 2.01 | K 1.6 | Q 2.94 | H 2.58 | C 1.99 | M 2.59 | W 2.76
I1: T 1.86 | C 2.94 | Q 2.23 | K 2.02 | N 1.38 | S 2.28 | D 2.44 | H 2.14
C14: N 4.56 | S 2.97 | Y 2.62 | D 2.61
L19: V 3.77 | A 1.61 | N 2.69 | R 2.5 | Y 2.61 | H 3.62
V5: Y 1.04 | A 3.31 | G 3.27 | F 3.49 | D 1.52 | N 3.44
F17: P 3.25 | T 3.18 | S 1.03 | D 3.24 | M 4.35 | K 2.69
A6: Q 1.15 | N 2.71 | E 2.19

Variants of: B2
Assay: as above
Conditions: c terminus: a fixed tail appended

Protein stability index, by site and new letter:
P10: I 1.48 | V 1.79 | W 1.36 | L 1.02 | G 2.27 | D 2.49 | M 1.89
T6: M 2.02 | D 2.93 | F 2.07 | R 1.99 | I 1.67 | S 1.97 | G 1.74
T9: R 1.3 | M 1.45 | S 1.94 | H 2.27 | L 1.27
L20: S 3.7 | A 3.4 | Q 3.17 | D 4.06 | Y 2.4
K19: E 2.54 | S 1.74 | D 2.67 | Q 1.96 | W 2.21 | N 2.16 | R 2.49 | A 1.62 | Y 1.34 | H 2.12
P12: K 2.32 | I 1.89 | E 3.13 | D 2.37 | V 1.68 | W 2.48 | H 1.94 | A 2.06 | S 3.04
A21: C 2.22 | S 2.15 | Q 2.48 | G 3.23 | L 1.58 | M 1.73 | I 1.85
F17: G 3.25 | C 2.96 | K 3.5 | H 2.63 | A 3.19 | T 3.67 | P 2.84 | E 3.95 | W 2.26
K22: R 2.07 | M 2.04 | D 1.95 | P 2.37 | A 2.19 | V 2.14 | F 1.96 | H 1.98 | N 2.4 | I 1.45 | C 1.8
A7: G 2.38 | N 2.54 | W 2.59 | Q 2.37
L16: N 3.32 | T 3.43 | P 3.29 | D 4.21 | R 3.34 | Y 1.92
T11: D 2.26 | S 1.86 | F 1.92 | L 1.52 | C 1.83 | K 2.56 | G 2.54 | W 1.92 | V 1.67
R4: L 1.92 | M 2.26 | D 3.69 | Y 1.54 | N 1.95
V23: E 3.84 | K 2.96 | M 1.9 | F 1.64 | S 2.7 | L 2.18 | Y 1.9 | A 2.45 | R 3.84 | Q 3.44
S8: W 3.14 | E 1.63 | H 1.82 | L 1.76 | I 1.57 | A 2
K15: R 1.78 | F 3.23 | W 1.93 | A 1.58 | T 1.7 | G 2 | M 1.33 | L 1.8 | E 2.2 | Y 1.63
Y24: E 3.49 | N 3.33 | I 2.6 | L 2.49 | K 3.95 | A 2.51
Q18: S 2.09 | W 1.37 | C 2.6 | P 2.7 | E 2.19 | N 1.8 | T 2.42 | L 1.69
R1: W 1.02 | T 1.49 | D 2.27 | Y 2.93 | I 1.42 | H 2.58 | N 2.42 | C 1.4
V3: N 2.2 | S 1.93 | M 1.84 | K 1.62 | F 2.24 | P 2.35 | I 2.48 | W 2.66 | G 2.12 | T 2.89
D14: K 2.35 | C 1.56 | A 2.05 | F 1.75 | L 1.64 | E 1.95 | S 2.63 | G 2.78 | H 2.32
D13: W 1.61 | K 1.88 | N 1.89 | S 2.02 | M 2.59 | A 1.97
G2: E 2.35 | S 3.13 | D 2.26 | N 3.13 | F 1.51
R5: D 2.69 | G 1.7 | E 2.57 | Q 2.23 | P 2.79 | K 1.85 | N 2.3

Variants of: B3
Assay: as above
Conditions: c terminus: a fixed tail appended

Protein stability index: each site, then its substitutions
N24: L 3.23 | T 2.47 | F 3.55 | S 2.05 | C 2.91 | A 3.67 | W 3.94 | Q 1.99 | P 3 | R 3.43
F23: E 3.16 | N 4.1 | H 2.43 | L 2.8 | Y 3.05 | G 2.44 | S 2.62 | I 3.75 | P 1.56 | Q 1.24
